The supplement of paper PMC10724198
± gives the standard deviation of the averaged measurements.

Test system: Saccharomyces cerevisiae
Assay: protein stability index of tFT-peptide fusion (C-terminal peptide) (PSI (0-1 scale)); higher = more stable (slower turnover)
Conditions: genetic background: wild type; temperature: 30 C
Experimental: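 Multiplexed protein stability (MPS) profiling in S. cerevisiae. Random 12-aa peptides (tFT-X12 library) are fused to the C-terminus of a sfGFP-mCherry tandem fluorescent timer, after mCherry and a GGGS linker. Cells are FACS-sorted into 8 mCherry/sfGFP bins and deep-sequenced. The protein stability index (PSI) is the read-weighted bin average, scaled from 0 (unstable) to 1 (stable). Only peptides with >10 reads are reported; cells were grown at 30 °C in SC-His with glucose.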
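Also: PSI is a weighted mean of sequencing reads over stability bins, variants kept only with over 10 reads, mCherry proximal and sfGFP distal, peptide attached via GGGS linker.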

Sequence	protein stability index
GAVRGGSGDWGR	0.723 ± 0.0083
GAWFSWLGEVVG	0.701 ± 0.075
GCASTNTPSTTP	0.714 ± 0.022
GCENSRRSWRPD	0.609 ± 0.028
GCFTLLCFRRIL	0.511 ± 0.012
GCGCVVRVWSGV	0.6621 ± 0.0013
GCGDSLGGERRE	0.643 ± 0.1
GCLCAGSMVGDL	0.666 ± 0.015
GCLLVVGGVWGS	0.625 ± 0.036
GCLVGRGQRGTE	0.686 ± 0.026
GCQVAVGRAGGV	0.659 ± 0.023
GCRGGLREAGVW	0.768 ± 0.024
GCRLVSDCRVFV	0.67 ± 0.031
GCSLTFAGLFCI	0.629 ± 0.01
GCTNSCGRHVKG	0.6426 ± 0.006
GCWGGLGAPGVS	0.734 ± 0.028
GDFFVSFRCLLL	0.606 ± 0.027
GDNRSVSRKAEW	0.614 ± 0.047
GDRAKTKQRESN	0.671 ± 0.01
GDTKKRTQGRGV	0.653 ± 0.011
GDTRILKSRPEI	0.699 ± 0.0098
GEAFLVRRSRNR	0.722 ± 0.082
GEAVTGQRGATS	0.71 ± 0.025
GEDGCGWSEAGG	0.664 ± 0.017
GEEGAWSRQGPP	0.658 ± 0.035
GEEGQRGRGWRS	0.733 ± 0.039

Sequence	protein stability index
GEGNAIGQVVRN	0.681 ± 0.021
GEILTLYLLPRL	0.705 ± 0.052
GELADVVWLGGE	0.652 ± 0.057
GENTRKNNVVGE	0.69 ± 0.017
GENVVPGLHTQV	0.675 ± 0.064
GEPSYLEYSNLV	0.765 ± 0.042
GEQEKRFFLSPL	0.717 ± 0.021
GERWGGGRAAET	0.714 ± 0.076
GETGGRSQDARI	0.744 ± 0.088
GEVAQDLGRDIL	0.7124 ± 0.0019
GEYLWVHRIISE	0.679 ± 0.086
GEYYAPVVGRRF	0.7121 ± 0.0031
GFCLGSLPQRLD	0.65 ± 0.019
GFCWFRGVGSGG	0.683 ± 0.044
GFFNNRLASSLR	0.734 ± 0.098
GFFRRNLGRVMD	0.608 ± 0.074
GFGLACGRCMGS	0.623 ± 0.098
GFLGLLASFFVL	0.604 ± 0.022
GFLSSLRLLPPF	0.688 ± 0.029
GFLSSSKSCRCH	0.632 ± 0.059
GFNRRVWRGLGV	0.721 ± 0.053
GFRLCVFGSSLF	0.6956 ± 0.0025
GFSLGAPRPFVQ	0.718 ± 0.039
GFSSVPFFPLSR	0.7142 ± 0.003
GFTCGCSSMKNF	0.718 ± 0.021
GFVPRSFNTLTS	0.664 ± 0.053

Sequence	protein stability index
GFVPWVCGVRMS	0.689 ± 0.051
GFWESLGGVGAE	0.697 ± 0.049
GGAAAWAERCGG	0.726 ± 0.0097
GGACGRRSEDCQ	0.633 ± 0.087
GGAEEGRANCWN	0.722 ± 0.1
GGAFPGPGFGLD	0.68 ± 0.017
GGAPMRPGGGTC	0.678 ± 0.065
GGASRLARMGWW	0.642 ± 0.034
GGAVGYRLVACD	0.656 ± 0.11
GGAVSRVGEWGR	0.7881 ± 0.0073
GGCGSAGRGQRG	0.697 ± 0.062
GGCGWRGDGGGA	0.679 ± 0.13
GGCSRYVLILFD	0.686 ± 0.15
GGDCGERRGNEV	0.65 ± 0.05
GGEGWGAFWGGE	0.713 ± 0.05
GGELGGTGVGGG	0.6881 ± 0.0016
GGFKGGKWVVEG	0.606 ± 0.021
GGFRREPWEILR	0.649 ± 0.0012
GGFSLTGSLCID	0.687 ± 0.035
GGGAAGILWGLG	0.694 ± 0.013
GGGAGGVVGGIS	0.694 ± 0.027
GGGAGLVGGCVA	0.735 ± 0.019
GGGARQAGGDNI	0.666 ± 0.045
GGGCGGACRPVG	0.692 ± 0.14
GGGCGGGGSSCA	0.654 ± 0.069
GGGCGGGQAGCQ	0.691 ± 0.043

Sequence	protein stability index
GGGCGMEPGCGP	0.687 ± 0.062
GGGFRVLCVGLG	0.627 ± 0.037
GGGGEDQSQGPP	0.69 ± 0.027
GGGGFGFGWSMV	0.709 ± 0.059
GGGGGECCFLEG	0.753 ± 0.081
GGGGGGGSRTGA	0.691 ± 0.037
GGGGGGPSGGSG	0.701 ± 0.079
GGGGGGVDWFEI	0.71359 ± 2.1e-05
GGGGGISGGRWG	0.667 ± 0.075
GGGGGLRVSCGT	0.679 ± 0.083
GGGGGVWGVGRV	0.66 ± 0.047
GGGGRWGVLVLG	0.504 ± 0.0062
GGGGVACAGCTV	0.637 ± 0.056
GGGGWGGAGLVG	0.704 ± 0.014
GGGMRLVKRACY	0.64 ± 0.031
GGGNRGTGCDWG	0.628 ± 0.013
GGGPGRGVWVRV	0.705 ± 0.021
GGGRCSGDGDRG	0.708 ± 0.063
GGGREGNGRERS	0.594 ± 0.053
GGGRWWRVGVGF	0.729 ± 0.021
GGGVDSGWGKGE	0.688 ± 0.024
GGGVGVPDSASE	0.681 ± 0.047
GGKKRGVRMCGG	0.655 ± 0.013
GGLGGWAECGRW	0.748 ± 0.11
GGLLGRLWDGGA	0.723 ± 0.04
GGLREPIYQLWV	0.648 ± 0.076

Sequence	protein stability index
GGMAFSRPSFNG	0.729 ± 0.032
GGMMRGHRHRCW	0.812 ± 0.0095
GGPPTQAKPSPR	0.647 ± 0.012
GGPSLTRCAAFG	0.677 ± 0.063
GGQGFWRLWCLG	0.686 ± 0.05
GGQRPKRQQLTT	0.7022 ± 0.0058
GGREVGQVLWDD	0.667 ± 0.024
GGREWRGGQGEV	0.669 ± 0.12
GGRGGRSGTEGE	0.6763 ± 0.0011
GGRGPRGAANRG	0.634 ± 0.066
GGRRKKRVTPGE	0.656 ± 0.0097
GGRRRAWLGGRW	0.746 ± 0.012
GGRVAGSMGVGG	0.68 ± 0.02
GGRWGGVSLGGR	0.693 ± 0.11
GGSESRGSDRWE	0.633 ± 0.038
GGSGQGAGAVWG	0.63 ± 0.076
GGSNEKARGTGR	0.6544 ± 0.00083
GGSVGGGTGWRM	0.65 ± 0.022
GGVGGASMSGTP	0.674 ± 0.037
GGVGVGVGCGGR	0.6828 ± 0.0017
GGVRGERSDLRT	0.712 ± 0.028
GGVVLTWVGENC	0.704 ± 0.061
GGWEGLRGLGVG	0.634 ± 0.031
GGWGGAGQWADG	0.706 ± 0.011
GGWGGKLVGRMG	0.708 ± 0.0083
GGWGVGVWGVGG	0.753 ± 0.08

Sequence	protein stability index
GGWKINYVEENR	0.663 ± 0.011
GGWTFGSPPYEI	0.693 ± 0.015
GGYSNRNVEVIV	0.6323 ± 0.003
GHKVTKDAIRIR	0.6545 ± 0.0047
GHRMMWLFGVPA	0.59 ± 0.035
GHSNVTSQIRRG	0.643 ± 0.017
GHVRVVVRRRVI	0.5812 ± 0.0021
GHWTRRPSVKGK	0.643 ± 0.0092
GICIVGGCGCVG	0.612 ± 0.068
GINFEIKFKRYN	0.764 ± 0.055
GIRRSLALSAIS	0.555 ± 0.017
GISKHGAITSRI	0.725 ± 0.0033
GIVDCTKVIGLP	0.722 ± 0.028
GKARLATGESAL	0.674 ± 0.031
GKCKRYENISKR	0.629 ± 0.0095
GKCLEGCCLVWG	0.686 ± 0.008
GKEGGKAGKISE	0.667 ± 0.028
GKEKRKEGERRK	0.697 ± 0.12
GKPTPRRPEKDG	0.6096 ± 0.0051
GKRKGETGNRGG	0.741 ± 0.19
GKRKKRRKRRRT	0.664 ± 0.043
GKRRKKDGNKKR	0.621 ± 0.066
GKSTFWTELAII	0.648 ± 0.045
GKYIPHGNPSMA	0.685 ± 0.051
GLAIRRDWLGWV	0.745 ± 0.056
